Measurements: publication PMC7864917

Molecular target: wild-type pig RyR1 (ryanodine receptor 1) (pig (purified from porcine skeletal muscle)) (UniProt P16960)
UniProt P16960, sequence (P16960 whole entry): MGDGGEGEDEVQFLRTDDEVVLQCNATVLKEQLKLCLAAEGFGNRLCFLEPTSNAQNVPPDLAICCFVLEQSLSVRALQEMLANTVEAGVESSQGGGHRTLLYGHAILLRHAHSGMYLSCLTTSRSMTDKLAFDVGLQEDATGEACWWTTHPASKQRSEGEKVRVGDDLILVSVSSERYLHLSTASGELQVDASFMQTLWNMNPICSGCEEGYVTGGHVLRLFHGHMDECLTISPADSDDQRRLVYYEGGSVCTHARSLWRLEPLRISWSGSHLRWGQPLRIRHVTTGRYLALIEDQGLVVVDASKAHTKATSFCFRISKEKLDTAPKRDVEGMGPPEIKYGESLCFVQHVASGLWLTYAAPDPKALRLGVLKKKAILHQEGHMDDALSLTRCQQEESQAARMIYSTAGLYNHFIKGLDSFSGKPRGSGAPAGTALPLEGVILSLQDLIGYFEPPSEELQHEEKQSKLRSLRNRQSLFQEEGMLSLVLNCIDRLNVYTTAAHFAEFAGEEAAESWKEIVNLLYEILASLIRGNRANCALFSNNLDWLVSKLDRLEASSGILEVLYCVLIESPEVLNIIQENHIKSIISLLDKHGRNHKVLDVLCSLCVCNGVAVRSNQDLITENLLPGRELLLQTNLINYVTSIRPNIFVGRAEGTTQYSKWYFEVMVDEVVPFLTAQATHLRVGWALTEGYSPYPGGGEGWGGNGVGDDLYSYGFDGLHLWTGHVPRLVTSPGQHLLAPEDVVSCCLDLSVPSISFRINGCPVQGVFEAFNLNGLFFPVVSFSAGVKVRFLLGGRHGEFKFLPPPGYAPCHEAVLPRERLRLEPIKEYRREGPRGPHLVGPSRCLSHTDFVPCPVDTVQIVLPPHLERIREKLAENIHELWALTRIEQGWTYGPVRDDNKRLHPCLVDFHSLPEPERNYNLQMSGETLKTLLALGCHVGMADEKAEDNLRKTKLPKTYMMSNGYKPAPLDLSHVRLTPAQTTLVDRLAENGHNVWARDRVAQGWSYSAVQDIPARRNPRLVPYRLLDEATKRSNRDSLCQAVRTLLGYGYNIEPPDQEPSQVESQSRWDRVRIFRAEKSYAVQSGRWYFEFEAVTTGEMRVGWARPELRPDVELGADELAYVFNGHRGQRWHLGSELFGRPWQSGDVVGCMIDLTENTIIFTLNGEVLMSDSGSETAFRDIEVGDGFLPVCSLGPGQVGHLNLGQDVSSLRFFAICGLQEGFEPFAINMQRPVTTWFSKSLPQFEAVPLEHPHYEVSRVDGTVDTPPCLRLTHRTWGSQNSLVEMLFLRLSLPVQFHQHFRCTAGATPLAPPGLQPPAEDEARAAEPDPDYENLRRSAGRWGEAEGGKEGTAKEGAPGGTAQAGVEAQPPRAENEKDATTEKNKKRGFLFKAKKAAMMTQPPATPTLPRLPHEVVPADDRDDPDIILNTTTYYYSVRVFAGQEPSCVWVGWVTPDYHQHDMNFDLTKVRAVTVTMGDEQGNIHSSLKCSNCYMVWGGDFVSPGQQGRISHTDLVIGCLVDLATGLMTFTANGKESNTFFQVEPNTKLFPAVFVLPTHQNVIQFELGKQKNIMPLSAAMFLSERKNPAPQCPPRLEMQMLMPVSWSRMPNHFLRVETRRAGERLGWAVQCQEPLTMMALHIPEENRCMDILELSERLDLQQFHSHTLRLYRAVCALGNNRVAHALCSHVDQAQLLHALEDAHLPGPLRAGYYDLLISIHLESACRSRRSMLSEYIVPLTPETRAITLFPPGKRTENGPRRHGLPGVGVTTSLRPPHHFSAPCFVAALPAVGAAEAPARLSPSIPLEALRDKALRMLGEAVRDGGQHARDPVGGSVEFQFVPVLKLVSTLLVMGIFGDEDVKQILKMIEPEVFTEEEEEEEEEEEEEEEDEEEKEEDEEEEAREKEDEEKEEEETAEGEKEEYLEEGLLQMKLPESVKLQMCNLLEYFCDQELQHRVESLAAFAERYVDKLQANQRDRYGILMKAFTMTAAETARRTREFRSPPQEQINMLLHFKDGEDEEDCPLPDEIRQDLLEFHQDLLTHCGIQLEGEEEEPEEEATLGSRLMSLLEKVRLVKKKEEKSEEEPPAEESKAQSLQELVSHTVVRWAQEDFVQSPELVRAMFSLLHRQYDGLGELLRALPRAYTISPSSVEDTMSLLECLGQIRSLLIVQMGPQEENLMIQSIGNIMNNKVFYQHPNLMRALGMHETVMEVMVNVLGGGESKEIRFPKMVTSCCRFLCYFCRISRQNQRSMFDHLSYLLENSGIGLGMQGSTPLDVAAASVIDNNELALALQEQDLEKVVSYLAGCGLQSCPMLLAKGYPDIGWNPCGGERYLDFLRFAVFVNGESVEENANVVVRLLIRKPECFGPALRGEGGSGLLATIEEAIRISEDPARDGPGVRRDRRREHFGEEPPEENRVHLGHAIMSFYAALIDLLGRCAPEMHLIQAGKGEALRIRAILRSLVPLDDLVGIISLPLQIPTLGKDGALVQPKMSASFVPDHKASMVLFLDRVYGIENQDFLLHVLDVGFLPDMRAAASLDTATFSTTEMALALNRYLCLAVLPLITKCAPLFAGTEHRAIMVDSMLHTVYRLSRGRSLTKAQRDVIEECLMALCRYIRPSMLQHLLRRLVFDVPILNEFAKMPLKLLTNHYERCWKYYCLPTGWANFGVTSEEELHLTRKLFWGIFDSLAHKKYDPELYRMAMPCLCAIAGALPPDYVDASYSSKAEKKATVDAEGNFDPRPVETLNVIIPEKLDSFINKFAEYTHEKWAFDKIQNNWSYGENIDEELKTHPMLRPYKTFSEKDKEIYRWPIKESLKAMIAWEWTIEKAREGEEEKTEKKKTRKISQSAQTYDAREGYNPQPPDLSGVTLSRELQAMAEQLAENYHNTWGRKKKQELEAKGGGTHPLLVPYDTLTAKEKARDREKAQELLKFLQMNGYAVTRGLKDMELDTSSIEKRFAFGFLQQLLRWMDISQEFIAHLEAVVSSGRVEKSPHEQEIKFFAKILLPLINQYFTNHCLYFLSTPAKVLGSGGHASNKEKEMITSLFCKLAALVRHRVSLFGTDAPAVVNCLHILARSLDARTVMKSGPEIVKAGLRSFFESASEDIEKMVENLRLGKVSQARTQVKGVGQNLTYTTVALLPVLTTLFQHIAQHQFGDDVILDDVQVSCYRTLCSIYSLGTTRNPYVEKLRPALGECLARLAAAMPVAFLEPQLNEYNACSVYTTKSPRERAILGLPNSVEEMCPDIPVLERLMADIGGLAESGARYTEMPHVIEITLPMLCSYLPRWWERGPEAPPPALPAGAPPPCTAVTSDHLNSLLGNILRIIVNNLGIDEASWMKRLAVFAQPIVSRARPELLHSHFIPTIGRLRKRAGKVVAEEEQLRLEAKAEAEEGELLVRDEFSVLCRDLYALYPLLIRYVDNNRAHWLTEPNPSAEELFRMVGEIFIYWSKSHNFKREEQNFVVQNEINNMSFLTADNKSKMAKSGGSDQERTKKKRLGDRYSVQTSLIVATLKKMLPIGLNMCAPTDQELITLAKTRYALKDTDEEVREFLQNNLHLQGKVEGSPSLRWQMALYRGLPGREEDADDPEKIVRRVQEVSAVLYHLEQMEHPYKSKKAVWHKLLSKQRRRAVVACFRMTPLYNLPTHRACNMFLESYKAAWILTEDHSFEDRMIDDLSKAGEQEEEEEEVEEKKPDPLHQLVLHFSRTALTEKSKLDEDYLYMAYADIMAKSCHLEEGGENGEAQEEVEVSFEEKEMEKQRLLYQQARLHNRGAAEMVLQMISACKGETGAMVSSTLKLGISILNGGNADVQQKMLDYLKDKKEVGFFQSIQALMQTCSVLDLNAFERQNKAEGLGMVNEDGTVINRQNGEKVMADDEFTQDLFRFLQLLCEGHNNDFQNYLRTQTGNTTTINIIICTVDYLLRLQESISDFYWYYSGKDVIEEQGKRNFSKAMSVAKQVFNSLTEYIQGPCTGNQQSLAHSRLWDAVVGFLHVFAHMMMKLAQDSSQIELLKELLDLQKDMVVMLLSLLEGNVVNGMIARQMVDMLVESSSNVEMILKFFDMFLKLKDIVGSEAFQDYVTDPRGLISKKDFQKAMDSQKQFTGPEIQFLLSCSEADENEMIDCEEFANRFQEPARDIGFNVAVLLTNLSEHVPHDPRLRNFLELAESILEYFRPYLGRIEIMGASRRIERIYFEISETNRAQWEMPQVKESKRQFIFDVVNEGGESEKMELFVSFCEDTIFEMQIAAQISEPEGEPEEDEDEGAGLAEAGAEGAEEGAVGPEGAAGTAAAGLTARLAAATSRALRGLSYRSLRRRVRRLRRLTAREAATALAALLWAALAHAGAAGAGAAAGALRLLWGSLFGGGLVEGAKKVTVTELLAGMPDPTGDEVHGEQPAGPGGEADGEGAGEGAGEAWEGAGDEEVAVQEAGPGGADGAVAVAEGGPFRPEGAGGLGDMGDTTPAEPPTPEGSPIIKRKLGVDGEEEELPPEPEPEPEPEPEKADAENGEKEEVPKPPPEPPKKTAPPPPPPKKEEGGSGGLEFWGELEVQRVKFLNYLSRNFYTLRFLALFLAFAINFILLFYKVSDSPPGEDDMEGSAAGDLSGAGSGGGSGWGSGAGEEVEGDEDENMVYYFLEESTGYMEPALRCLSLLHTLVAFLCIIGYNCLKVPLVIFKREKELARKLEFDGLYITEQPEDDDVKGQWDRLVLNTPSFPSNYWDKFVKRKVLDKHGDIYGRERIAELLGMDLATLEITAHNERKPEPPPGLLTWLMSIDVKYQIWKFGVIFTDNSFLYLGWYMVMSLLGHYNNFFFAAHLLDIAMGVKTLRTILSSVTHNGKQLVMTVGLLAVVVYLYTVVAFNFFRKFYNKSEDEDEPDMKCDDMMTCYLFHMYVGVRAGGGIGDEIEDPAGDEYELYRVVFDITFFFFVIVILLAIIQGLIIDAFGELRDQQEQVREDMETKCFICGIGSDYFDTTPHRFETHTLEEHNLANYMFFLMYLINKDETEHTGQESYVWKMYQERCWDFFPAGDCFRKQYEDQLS

“apo-calmodulin (from UniProt P0DP23 1-149) (natural protein)” was tested, and the single-channel open probability (Po) in planar lipid bilayers with 1 uM calmodulin, 40 nM free Ca2+, 2 mM ATP was 2 fold.
